Results on 167 variants are retold here after the RNAGym collection of RNA variant scans (doi:10.7554/elife.80360).

B1: Hairpin Ribozyme (parent)
chain: GUCCUCUUUCACGUGCGCGUGAAAGAGAGAAGUGAACCAGAGAAACACACGUUGUGGUAUAUUACCUGGUA

The variants in this data set derive from B1. Nature of the data set: self-cleavage, relative activity (ratio to wild type); higher = more cleavage; co-transcriptional.
Take G27U U33C: the self-cleavage was 0.109.

G27U U33A: the self-cleavage stood at 0.121.

On to A28U A36C, for which the self-cleavage came to 0.286.

Regarding G27A C50U, the self-cleavage came out at 0.124.

Consider A28C U70A, for which the self-cleavage turned out to be 0.468.

On to A28G A44U, for which the self-cleavage worked out at 0.142.

Regarding G27A U53G, the self-cleavage amounted to 0.518.

Turning to G27A U53C, the self-cleavage turned out to be 0.64.

Turning to G27C C46G, the self-cleavage stood at 0.152.

As to G27C C46A, the self-cleavage stood at 0.0983.

Consider G27C A45G, for which the self-cleavage was 0.19.

For G27C A45U, the self-cleavage worked out at 0.202.

Regarding A26U U55C, the self-cleavage is 0.23.

For A26U U55G, the self-cleavage came to 0.281.

Regarding A28C A41C, the self-cleavage was determined as 0.625.

As to A26U C50U, the self-cleavage is 0.261.

A26U A36C: the self-cleavage came to 0.343.

Regarding A26U A36U, the self-cleavage was determined as 0.414.

On to A28G U53G, for which the self-cleavage came out at 1.13.

For the variant A28G U53C, the self-cleavage is 1.06.

Turning to A28G U53A, the self-cleavage came to 1.01.

Consider A28C A49C, for which the self-cleavage is 0.119.

In the case of G27C U60A, the self-cleavage worked out at 0.177.

Consider G27C A44G, for which the self-cleavage worked out at 0.21.

For the variant G27C A44U, the self-cleavage worked out at 0.0991.

Turning to A28G C65G, the self-cleavage turned out to be 0.409.

Turning to A28G C65A, the self-cleavage was 0.884.

Consider G27U A35G, for which the self-cleavage was determined as 0.228.

As to G27U A30C, the self-cleavage was 0.1.

Consider A26U A28U, for which the self-cleavage was found to be 0.257.

Take A26U A28C: the self-cleavage is 0.155.

As to G27U U53G, the self-cleavage is 0.23.

Turning to G27A C48U, the self-cleavage was 0.183.

As to G27A C48A, the self-cleavage is 0.178.

Regarding A28G G51C, the self-cleavage was found to be 1.08.

For the variant A26G C66G, the self-cleavage worked out at 0.353.

G27U U60G: the self-cleavage was determined as 0.0793.

On to G27A U52G, for which the self-cleavage amounted to 0.431.

As to G27A U52C, the self-cleavage worked out at 0.477.

A28G U33A: the self-cleavage came to 0.157.

Take A26U A30U: the self-cleavage was 0.11.

Consider A28U A61U, for which the self-cleavage amounted to 0.12.

As to A28U A61C, the self-cleavage was determined as 0.18.

As for G27A G68C, the self-cleavage amounted to 0.215.

Turning to G27A G68U, the self-cleavage turned out to be 0.184.

For G27C A30G, the self-cleavage came to 0.172.

On to A26U G40C, for which the self-cleavage amounted to 0.0803.

On to G27U A64C, for which the self-cleavage was 0.173.

For the variant G27U A64U, the self-cleavage is 0.129.

In the case of A28C U58G, the self-cleavage amounted to 0.151.

For the variant A28C U58A, the self-cleavage turned out to be 0.401.

On to A26G G51C, for which the self-cleavage was 0.78.

In the case of A26G G51A, the self-cleavage was 0.938.

On to A26G G51U, for which the self-cleavage turned out to be 0.9.

Regarding A26G G27C, the self-cleavage worked out at 0.215.

Take A26U A49G: the self-cleavage came out at 0.41.

On to A26U A49U, for which the self-cleavage was determined as 0.0963.

Consider A26C G34C, for which the self-cleavage worked out at 1.47.

Regarding G27C U67C, the self-cleavage turned out to be 0.103.

In the case of A28C G40C, the self-cleavage stood at 0.0679.

In the case of A28C G40U, the self-cleavage came to 0.101.

For G27A U70G, the self-cleavage was determined as 0.227.

On to A26G U58A, for which the self-cleavage amounted to 0.755.

Take A26G U58G: the self-cleavage turned out to be 0.693.

Consider A28C C37A, for which the self-cleavage worked out at 0.166.

Consider A26U G32U, for which the self-cleavage worked out at 0.202.

On to A26U U60A, for which the self-cleavage stood at 0.328.

As for A26G A39U, the self-cleavage came to 0.407.

Consider A26U C65U, for which the self-cleavage turned out to be 0.161.

Regarding A26U C65A, the self-cleavage was found to be 0.701.

Turning to G27A G29U, the self-cleavage is 0.126.

For the variant A28G G32A, the self-cleavage amounted to 0.236.

In the case of A28G G32U, the self-cleavage stood at 0.0347.

G27C A71C: the self-cleavage is 0.53.

Regarding A26G U33A, the self-cleavage came out at 0.135.

In the case of A28G G54A, the self-cleavage was found to be 0.646.

For A26U U58G, the self-cleavage was 0.631.

Take A28U A41C: the self-cleavage was 1.13.

As to A26G U60G, the self-cleavage is 0.717.

Regarding A28G C37G, the self-cleavage was 0.36.

As for A28G C37A, the self-cleavage stood at 0.504.

For A26U A44C, the self-cleavage worked out at 0.0769.

For the variant A26U A44U, the self-cleavage was 0.141.

Consider A26U A44G, for which the self-cleavage is 0.288.

Take A28G G57U: the self-cleavage came to 0.36.

With A28G G57A, the self-cleavage was determined as 0.19.

With A26U A47U, the self-cleavage is 0.0699.

For A26G A61C, the self-cleavage was found to be 0.173.

On to G27C U55C, for which the self-cleavage was 0.186.

Regarding A26U A64C, the self-cleavage amounted to 0.15.

In the case of A26U G27C, the self-cleavage came out at 0.177.

Regarding A26U A45G, the self-cleavage is 0.168.

Consider A26U A45U, for which the self-cleavage came out at 0.245.

For A28C U62G, the self-cleavage was determined as 0.18.

Take A28C U62A: the self-cleavage was determined as 0.159.

Take A28C U62C: the self-cleavage came out at 0.203.

For the variant A26C C65A, the self-cleavage was 0.614.

As for A26C C65U, the self-cleavage is 0.256.

With A28C G69C, the self-cleavage was 0.262.

As for A28C G69A, the self-cleavage amounted to 0.168.

A26G A41U: the self-cleavage stood at 1.24.

Regarding A26G A41G, the self-cleavage came to 1.13.

Take G27U A41U: the self-cleavage stood at 0.554.

With G27U A41G, the self-cleavage stood at 0.305.

Take G27A A43U: the self-cleavage is 0.052.

With A26G G68A, the self-cleavage was determined as 0.309.

Turning to A26U G69A, the self-cleavage came to 0.203.

In the case of G27C A39G, the self-cleavage amounted to 0.0932.

For the variant G27C U70A, the self-cleavage is 0.319.

For the variant G27C U70C, the self-cleavage amounted to 0.132.

With A26U U33C, the self-cleavage was found to be 0.141.

For A26U U33A, the self-cleavage was determined as 0.148.

For A26U G54C, the self-cleavage was 0.305.

In the case of G27A G32C, the self-cleavage was found to be 0.226.

In the case of G27A G32A, the self-cleavage stood at 0.0917.

In the case of A26C C66U, the self-cleavage came to 0.315.

For the variant G27C U58C, the self-cleavage stood at 0.214.

As to A26C U60A, the self-cleavage is 0.659.

Consider A26G, for which the self-cleavage worked out at 0.901.

For A26U, the self-cleavage was 0.683.

On to A26C G57U, for which the self-cleavage was determined as 0.32.

As to A28C C48U, the self-cleavage came out at 0.124.

Turning to A26G U70G, the self-cleavage amounted to 0.81.

Take A26G U70A: the self-cleavage was 1.06.

Take A26G A28C: the self-cleavage worked out at 0.358.

For the variant A26G A28U, the self-cleavage stood at 0.491.

Take A28U A64C: the self-cleavage worked out at 0.278.

With A28U A64G, the self-cleavage is 0.167.

In the case of A28U A64U, the self-cleavage is 0.0714.

For A28G A59U, the self-cleavage is 0.32.

On to A26C G54U, for which the self-cleavage was 0.314.

As to A26C G54A, the self-cleavage came out at 0.511.

As for A28G U70A, the self-cleavage was determined as 1.05.

Take A28G A47U: the self-cleavage was 0.192.

Regarding A28G A47C, the self-cleavage came to 0.42.

Take G27A A64U: the self-cleavage came out at 0.174.

As for A26G A45C, the self-cleavage was found to be 0.135.

Regarding A26U G57C, the self-cleavage was 0.123.

Take A26U G57A: the self-cleavage worked out at 0.184.

On to A28C G54U, for which the self-cleavage is 0.262.

Consider G27U A44C, for which the self-cleavage is 0.0839.

For G27U A44G, the self-cleavage was found to be 0.193.

For the variant A26G A47G, the self-cleavage was 0.161.

G27C A59U: the self-cleavage came out at 0.16.

As for G27C G56C, the self-cleavage was determined as 0.134.

With G27A G57C, the self-cleavage turned out to be 0.184.

On to G27C C38A, for which the self-cleavage is 0.116.

Consider A26C U55A, for which the self-cleavage came out at 0.194.

Regarding A26U C46G, the self-cleavage was 0.317.

With G27A U58A, the self-cleavage is 0.176.

Turning to A28C U33C, the self-cleavage worked out at 0.107.

With G27A A31G, the self-cleavage came to 0.221.

For G27A A31U, the self-cleavage is 0.153.

As for G27A A44C, the self-cleavage was 0.143.

As to G27A A44U, the self-cleavage is 0.139.

As for A26U A41C, the self-cleavage was found to be 0.776.

Consider A28C A36U, for which the self-cleavage is 0.302.

As for A28C A36C, the self-cleavage came to 0.32.

Turning to A28C A36G, the self-cleavage came out at 0.552.

On to A26U A35U, for which the self-cleavage turned out to be 0.302.

Regarding A26U A35C, the self-cleavage amounted to 0.846.

On to G27A C66A, for which the self-cleavage turned out to be 0.204.

With G27U C46U, the self-cleavage amounted to 0.12.

Regarding A26G U63G, the self-cleavage was found to be 0.183.

As to A28C G32A, the self-cleavage was determined as 0.172.

Consider G27A U62A, for which the self-cleavage was found to be 0.155.

Regarding A26G C37A, the self-cleavage turned out to be 0.268.
